Measured values from patent publication US11655308B2, “HM-3 fusion protein and application thereof” (TASLY BIOPHARMACEUTICALS CO., LTD., priority 2017, dated 2023).
Values joined by “and” are separate entries in the source; they are usually repeats but may differ in a detail not shown here. Identical values can stand only once.

How the values were obtained:
[1] = system: transgenic blood vessel fluorescent zebrafish; experiment: In vivo anti-angiogenesis in zebrafish (SIVs area); set-up: area of SIVs: unit not given here; conditions: for inhibition rate of angiogenesis / area of SIVs: 24 h; for area of SIVs: normal control group 53193
Procedure: Experimental method: transgenic blood vessel fluorescent zebrafish was randomly selected and put into a six-well plate with 30 fish per well, and intravenously injected HM-3 polypeptide, TSL-1 fusion protein, TSL-2 fusion protein, TSL-3 fusion protein and TSL-4 fusion protein respectively in accordance with the dosage of 20 ng/tail and 66 ng/tail; the dosage was […] in Avastin positive control and the injection volume was 20 nL/tail; the zebrafish injected 20 nL/tail of buffer solution served as a solvent control group, and the zebrafish without any treatment served as a normal control group. 10 pieces of zebrafish were randomly selected from each group after processed for 24 h to observe the intestinal vessels of the transgenic zebrafish by a fluorescence microscope, as well as to take and maintain images. Image analysis was performed by Nikon MS-Elements D 3.10 to calculate the area (S) of SIVs (subintestinal vessel, SIV). The calculation formula of angiogenesis inhibition rate was as follows: Angiogenesis inhibition rate (%)=(1−S(Test sample group)/S(Normal control group))×100%
Statistical analysis was performed by variance analysis and Dunnett's T-test and the results were expressed as Mean±SD, where p<0.05 indicates a significant difference.

[2] = Pharmacokinetics after single subcutaneous injection (double-antibody sandwich ELISA)
Procedure: (1) 18 SD rats (half male and half female) were purchased and fed for one week.
(2) Rats were divided into 3 groups, half male and half female, and weight of rats were recorded respectively.
The blood was centrifuged at 12000 rpm/min to take 200 μL of supernatant, then the supernatant was diluted with PBS solution according to a ratio of 1:3, and finally placed in an EP tube and stored in a −80° C. refrigerator.
(4) Biological samples were measured by double-antibody sandwich ELISA.
(1) Coating, HM-3 monoclonal antibody was diluted with a coating buffer (CBS) in certain concentration, added to an ELISA plate and coated overnight.
(2) Plate washing, the coating buffer was discarded, and the plate was washed by PBST for 3 times, and then dried by patting.
(3) Sealing, a blocking buffer was added for sealing at 37.5° C., the plate washing process was repeated and the plate was dried by patting.
(4) Addition of samples to be measured, the samples to be measured were added to the ELISA plate with multiple wells, and then incubated at 37.5° C.; the plate washing process was repeated and the plate was dried by patting.
(5) Addition of a secondary antibody, the secondary antibody diluted proportionally was added for incubation at 37.5° C. The plate washing process was repeated and the plate was dried by patting.
(6) Addition of the enzyme-labeled secondary antibody for reaction, the HRP-labeled secondary antibody which was diluted by 5% skim milk powder solution according to certain proportion was added for incubation at 37.5° C. The plate washing process was repeated and the plate was dried by patting.
(7) Addition of a substrate, a TMB substrate in certain volume L was added for reaction in the dark.
(8) Termination of the reaction, a certain amount of stop buffer was added to terminate the reaction.
(9) Detection, read OD450 nm with a microplate reader.

Substance: mIgG4-Fc-(GGGGS)3-HM-3 [TSL-4]
- inhibiting effect on angiogenesis ([1]; 20 ng/tail): significant inhibitory effect
- inhibition rate of angiogenesis ([1]; 20 ng/tail iv): 36%
- area of SIVs ([1]; 20 ng/tail iv): 33869
- inhibition rate of angiogenesis ([1]; 66 ng/tail iv): 47%
- area of SIVs ([1]; 66 ng/tail iv): 28297
- Plasma concentration ([2]; 4.17 mg/kg sc, 0.00 h, Mean): 0 µg/mL
- Plasma concentration ([2]; 4.17 mg/kg sc, 0.00 h, single rats No. 1-5): 0 µg/mL
- Plasma concentration ([2]; 4.17 mg/kg sc, 0.50 h, Mean): 0.0818 µg/mL
- Plasma concentration ([2]; 4.17 mg/kg sc, 0.50 h, single rats No. 1-5): 0.00626 µg/mL and 0.0985 µg/mL and 0.131 µg/mL and 0.0504 µg/mL and 0.122 µg/mL
- Plasma concentration ([2]; 4.17 mg/kg sc, 1.00 h, Mean): 0.135 µg/mL
- Plasma concentration ([2]; 4.17 mg/kg sc, 1.00 h, single rats No. 1-5): 0.0588 µg/mL and 0.162 µg/mL and 0.168 µg/mL and 0.136 µg/mL and 0.151 µg/mL
- Plasma concentration ([2]; 4.17 mg/kg sc, 3.00 h, Mean): 0.388 µg/mL
- Plasma concentration ([2]; 4.17 mg/kg sc, 3.00 h, single rats No. 1-5): 0.238 µg/mL and 0.382 µg/mL and 0.412 µg/mL and 0.338 µg/mL and 0.570 µg/mL
- Plasma concentration ([2]; 4.17 mg/kg sc, 5.00 h, Mean): 0.573 µg/mL
- Plasma concentration ([2]; 4.17 mg/kg sc, 5.00 h, single rats No. 1-5): 0.667 µg/mL and 0.482 µg/mL and 0.575 µg/mL and 0.374 µg/mL and 0.766 µg/mL
- Plasma concentration ([2]; 4.17 mg/kg sc, 6.00 h, Mean): 0.894 µg/mL
- Plasma concentration ([2]; 4.17 mg/kg sc, 6.00 h, single rats No. 1-5): 1.278 µg/mL and 0.699 µg/mL and 1.024 µg/mL and 0.491 µg/mL and 0.978 µg/mL
- Plasma concentration ([2]; 4.17 mg/kg sc, 7.00 h, Mean): 1.297 µg/mL
- Plasma concentration ([2]; 4.17 mg/kg sc, 7.00 h, single rats No. 1-5): 1.696 µg/mL and 0.903 µg/mL and 1.556 µg/mL and 0.914 µg/mL and 1.415 µg/mL
- Plasma concentration ([2]; 4.17 mg/kg sc, 8.00 h, Mean): 1.356 µg/mL
- Plasma concentration ([2]; 4.17 mg/kg sc, 8.00 h, single rats No. 1-5): 1.383 µg/mL and 1.584 µg/mL and 1.319 µg/mL and 1.407 µg/mL and 1.088 µg/mL
- Plasma concentration ([2]; 4.17 mg/kg sc, 10.00 h, Mean): 1.058 µg/mL
- Plasma concentration ([2]; 4.17 mg/kg sc, 10.00 h, single rats No. 1-5): 1.192 µg/mL and 1.305 µg/mL and 0.854 µg/mL and 0.960 µg/mL and 0.980 µg/mL
- Plasma concentration ([2]; 4.17 mg/kg sc, 12.00 h, Mean): 0.771 µg/mL
- Plasma concentration ([2]; 4.17 mg/kg sc, 12.00 h, single rats No. 1-5): 0.947 µg/mL and 0.964 µg/mL and 0.712 µg/mL and 0.363 µg/mL and 0.867 µg/mL
- Plasma concentration ([2]; 4.17 mg/kg sc, 16.00 h, Mean): 0.468 µg/mL
- Plasma concentration ([2]; 4.17 mg/kg sc, 16.00 h, single rats No. 1-5): 0.767 µg/mL and 0.682 µg/mL and 0.237 µg/mL and 0.183 µg/mL and 0.471 µg/mL
- Plasma concentration ([2]; 4.17 mg/kg sc, 20.00 h, Mean): 0.205 µg/mL
- Plasma concentration ([2]; 4.17 mg/kg sc, 20.00 h, single rats No. 1-5): 0.249 μg/mL and 0.252 μg/mL and 0.179 μg/mL and 0.172 μg/mL (2×)
- Plasma concentration ([2]; 4.17 mg/kg sc, 24.00 h, Mean): 0.100 µg/mL
- Plasma concentration ([2]; 4.17 mg/kg sc, 24.00 h, single rats No. 1-5): 0.0638 μg/mL and 0.0738 μg/mL and 0.0533 μg/mL and 0.155 μg/mL (2×)
- Plasma concentration ([2]; 4.17 mg/kg sc, 28.00 h, Mean): 0.0667 µg/mL
- Plasma concentration ([2]; 4.17 mg/kg sc, 28.00 h, single rats No. 1-5): 0.0454 μg/mL and 0.0406 μg/mL and 0.0381 μg/mL and 0.105 μg/mL (2×)
- Plasma concentration ([2]; 4.17 mg/kg sc, 41.00 h, Mean): 0.0545 µg/mL
- Plasma concentration ([2]; 4.17 mg/kg sc, 41.00 h, single rats No. 1-5): 0.0298 μg/mL and 0.0288 μg/mL and 0.0231 μg/mL and 0.0954 μg/mL (2×)
- Plasma concentration ([2]; 4.17 mg/kg sc, 53.00 h, Mean): 0.0366 µg/mL
- Plasma concentration ([2]; 4.17 mg/kg sc, 53.00 h, single rats No. 1-5): 0.0108 µg/mL and 0.0074 µg/mL and 0.0171 µg/mL and 0.0669 µg/mL and 0.0809 µg/mL
- Plasma concentration ([2]; 4.17 mg/kg sc, 65.00 h, Mean): 0.0233 µg/mL
- Plasma concentration ([2]; 4.17 mg/kg sc, 65.00 h, single rats No. 1-5): 0.008536 µg/mL and 0.003139 µg/mL and 0.0168 µg/mL and 0.0440 µg/mL and 0.044 µg/mL
- Plasma concentration ([2]; 4.17 mg/kg sc, 77.00 h, Mean): 0.0114 µg/mL
- Plasma concentration ([2]; 4.17 mg/kg sc, 77.00 h, single rats No. 1-5): 0.005846 µg/mL and 0.002666 µg/mL and 0.0125 µg/mL and 0.0181 µg/mL and 0.01811 µg/mL
- AUC 0-77 ([2]; 4.17 mg/kg single sc): 7055.774 ng·h/mL
- AUC 0-∞ ([2]; 4.17 mg/kg single sc): 9006.668 ± 3859.519 ng·h/mL
- MRT 0-77 ([2]; 4.17 mg/kg single sc): 14.880 h
- MRT 0-∞ ([2]; 4.17 mg/kg single sc): 17.330 h
- Tmax ([2]; 4.17 mg/kg single sc): 7.4 ± 0.55 h
- ka ([2]; 4.17 mg/kg single sc): 0.258
- t½ka (absorption half-life) ([2]; 4.17 mg/kg single sc): 2.265 h
- t½ke (elimination half-life) ([2]; 4.17 mg/kg single sc): 30.710 ± 3.100 h
- α, ke ([2]; 4.17 mg/kg single sc): 0.090
- Plasma concentration ([2]; 12.5 mg/kg sc, 0.50 h, Mean): 0.848 µg/mL
- Plasma concentration ([2]; 12.5 mg/kg sc, 0.50 h, single rats No. 1-5): 0.176 µg/mL and 0.741 µg/mL and 0.995 µg/mL and 0.598 µg/mL and 1.728 µg/mL
- Plasma concentration ([2]; 12.5 mg/kg sc, 1.00 h, Mean): 1.877 µg/mL
- Plasma concentration ([2]; 12.5 mg/kg sc, 1.00 h, single rats No. 1-5): 0.740 µg/mL and 1.435 µg/mL and 1.875 µg/mL and 1.153 µg/mL and 4.180 µg/mL
- Plasma concentration ([2]; 12.5 mg/kg sc, 3.00 h, Mean): 4.078 µg/mL
- Plasma concentration ([2]; 12.5 mg/kg sc, 3.00 h, single rats No. 1-5): 1.459 µg/mL and 2.970 µg/mL and 4.100 µg/mL and 2.070 µg/mL and 9.793 µg/mL
- Plasma concentration ([2]; 12.5 mg/kg sc, 5.00 h, Mean): 7.518 µg/mL
- Plasma concentration ([2]; 12.5 mg/kg sc, 5.00 h, single rats No. 1-5): 2.030 µg/mL and 5.512 µg/mL and 8.329 µg/mL and 6.748 µg/mL and 14.973 µg/mL
- Plasma concentration ([2]; 12.5 mg/kg sc, 6.00 h, Mean): 9.970 µg/mL
- Plasma concentration ([2]; 12.5 mg/kg sc, 6.00 h, single rats No. 1-5): 2.337 µg/mL and 7.869 µg/mL and 11.753 µg/mL and 9.720 µg/mL and 18.172 µg/mL
- Plasma concentration ([2]; 12.5 mg/kg sc, 7.00 h, Mean): 13.413 µg/mL
- Plasma concentration ([2]; 12.5 mg/kg sc, 7.00 h, single rats No. 1-5): 3.372 µg/mL and 8.202 µg/mL and 11.959 µg/mL and 7.582 µg/mL and 35.951 µg/mL
- Plasma concentration ([2]; 12.5 mg/kg sc, 8.00 h, Mean): 10.626 µg/mL
- Plasma concentration ([2]; 12.5 mg/kg sc, 8.00 h, single rats No. 1-5): 4.395 µg/mL and 6.684 µg/mL and 10.711 µg/mL and 6.343 µg/mL and 24.998 µg/mL
- Plasma concentration ([2]; 12.5 mg/kg sc, 10.00 h, Mean): 8.284 µg/mL
- Plasma concentration ([2]; 12.5 mg/kg sc, 10.00 h, single rats No. 1-5): 3.014 µg/mL and 5.271 µg/mL and 9.706 µg/mL and 6.000 µg/mL and 17.430 µg/mL
- Plasma concentration ([2]; 12.5 mg/kg sc, 12.00 h, Mean): 7.390 µg/mL
- Plasma concentration ([2]; 12.5 mg/kg sc, 12.00 h, single rats No. 1-5): 2.663 µg/mL and 4.448 µg/mL and 7.496 µg/mL and 5.562 µg/mL and 16.780 µg/mL
